The results in this text go back to IntAct's records for PubMed 21240272.

The chains are these.
B1: F-box-like/WD repeat-containing protein TBL1X (Homo sapiens), O60907-2 (parent)
chain: MSITSDEVNFLVYRYLQESGFSHSAFTFGIESHISQSNINGTLVPPAALISILQKGLQYVEAEISINEDGTVFDGRPIESLSLIDAVMPDVVQTRQQAFREKLAQQQASAAAAAAAATAAATAATTTSAGVSHQNPSKNREATVNGEENRAHSVNNHAKPMEIDGEVEIPSSKATVLRGHESEVFICAWNPVSDLLASGSGDSTARIWNLNENSNGGSTQLVLRHCIREGGHDVPSNKDVTSLDWNTNGTLLATGSYDGFARIWTEDGNLASTLGQHKGPIFALKWNRKGNYILSAGVDKTTIIWDAHTGEAKQQFPFHSAPALDVDWQNNTTFASCSTDMCIHVCRLGCDRPVKTFQGHTNEVNAIKWDPSGMLLASCSDDMTLKIWSMKQEVCIHDLQAHNKEIYTIKWSPTGPATSNPNSNIMLASASFDSTVRLWDIERGVCTHTLTKHQEPVYSVAFSPDGKYLASGSFDKCVHIWNTQSGNLVHSYRGTGGIFEVCWNARGDKVGASASDGSVCVLDLRK
B2: G protein pathway suppressor 2 (Homo sapiens), Q13227 (parent)
chain: MPALLERPKLSNAMARALHRHIMMERERKRQEEEEVDKMMEQKMKEEQERRKKKEMEERMSLEETKEQILKLEEKLLALQEEKHQLFLQLKKVLHEEEKRRRKEQSDLTTLTSAAYQQSLTVHTGTHLLSMQGSPGGHNRPGTLMAADRAKQMFGPQVLTTRHYVGSAAAFAGTPEHGQFQGSPGGAYGTAQPPPHYGPTQPAYSPSQQLRAPSAFPAVQYLSQPQPQPYAVHGHFQPTQTGFLQPGGALSLQKQMEHANQQTGFSDSSSLRPMHPQALHPAPGLLASPQLPVQMQPAGKSGFAATSQPGPRLPFIQHSQNPRFYHK
partner: B1 chain

The variants in one assay derive from B1. The note with it: with ncor2_human NCOR2, Q9Y618.
Sequence of ncor2_human NCOR2, Q9Y618 (Q9Y618 whole entry): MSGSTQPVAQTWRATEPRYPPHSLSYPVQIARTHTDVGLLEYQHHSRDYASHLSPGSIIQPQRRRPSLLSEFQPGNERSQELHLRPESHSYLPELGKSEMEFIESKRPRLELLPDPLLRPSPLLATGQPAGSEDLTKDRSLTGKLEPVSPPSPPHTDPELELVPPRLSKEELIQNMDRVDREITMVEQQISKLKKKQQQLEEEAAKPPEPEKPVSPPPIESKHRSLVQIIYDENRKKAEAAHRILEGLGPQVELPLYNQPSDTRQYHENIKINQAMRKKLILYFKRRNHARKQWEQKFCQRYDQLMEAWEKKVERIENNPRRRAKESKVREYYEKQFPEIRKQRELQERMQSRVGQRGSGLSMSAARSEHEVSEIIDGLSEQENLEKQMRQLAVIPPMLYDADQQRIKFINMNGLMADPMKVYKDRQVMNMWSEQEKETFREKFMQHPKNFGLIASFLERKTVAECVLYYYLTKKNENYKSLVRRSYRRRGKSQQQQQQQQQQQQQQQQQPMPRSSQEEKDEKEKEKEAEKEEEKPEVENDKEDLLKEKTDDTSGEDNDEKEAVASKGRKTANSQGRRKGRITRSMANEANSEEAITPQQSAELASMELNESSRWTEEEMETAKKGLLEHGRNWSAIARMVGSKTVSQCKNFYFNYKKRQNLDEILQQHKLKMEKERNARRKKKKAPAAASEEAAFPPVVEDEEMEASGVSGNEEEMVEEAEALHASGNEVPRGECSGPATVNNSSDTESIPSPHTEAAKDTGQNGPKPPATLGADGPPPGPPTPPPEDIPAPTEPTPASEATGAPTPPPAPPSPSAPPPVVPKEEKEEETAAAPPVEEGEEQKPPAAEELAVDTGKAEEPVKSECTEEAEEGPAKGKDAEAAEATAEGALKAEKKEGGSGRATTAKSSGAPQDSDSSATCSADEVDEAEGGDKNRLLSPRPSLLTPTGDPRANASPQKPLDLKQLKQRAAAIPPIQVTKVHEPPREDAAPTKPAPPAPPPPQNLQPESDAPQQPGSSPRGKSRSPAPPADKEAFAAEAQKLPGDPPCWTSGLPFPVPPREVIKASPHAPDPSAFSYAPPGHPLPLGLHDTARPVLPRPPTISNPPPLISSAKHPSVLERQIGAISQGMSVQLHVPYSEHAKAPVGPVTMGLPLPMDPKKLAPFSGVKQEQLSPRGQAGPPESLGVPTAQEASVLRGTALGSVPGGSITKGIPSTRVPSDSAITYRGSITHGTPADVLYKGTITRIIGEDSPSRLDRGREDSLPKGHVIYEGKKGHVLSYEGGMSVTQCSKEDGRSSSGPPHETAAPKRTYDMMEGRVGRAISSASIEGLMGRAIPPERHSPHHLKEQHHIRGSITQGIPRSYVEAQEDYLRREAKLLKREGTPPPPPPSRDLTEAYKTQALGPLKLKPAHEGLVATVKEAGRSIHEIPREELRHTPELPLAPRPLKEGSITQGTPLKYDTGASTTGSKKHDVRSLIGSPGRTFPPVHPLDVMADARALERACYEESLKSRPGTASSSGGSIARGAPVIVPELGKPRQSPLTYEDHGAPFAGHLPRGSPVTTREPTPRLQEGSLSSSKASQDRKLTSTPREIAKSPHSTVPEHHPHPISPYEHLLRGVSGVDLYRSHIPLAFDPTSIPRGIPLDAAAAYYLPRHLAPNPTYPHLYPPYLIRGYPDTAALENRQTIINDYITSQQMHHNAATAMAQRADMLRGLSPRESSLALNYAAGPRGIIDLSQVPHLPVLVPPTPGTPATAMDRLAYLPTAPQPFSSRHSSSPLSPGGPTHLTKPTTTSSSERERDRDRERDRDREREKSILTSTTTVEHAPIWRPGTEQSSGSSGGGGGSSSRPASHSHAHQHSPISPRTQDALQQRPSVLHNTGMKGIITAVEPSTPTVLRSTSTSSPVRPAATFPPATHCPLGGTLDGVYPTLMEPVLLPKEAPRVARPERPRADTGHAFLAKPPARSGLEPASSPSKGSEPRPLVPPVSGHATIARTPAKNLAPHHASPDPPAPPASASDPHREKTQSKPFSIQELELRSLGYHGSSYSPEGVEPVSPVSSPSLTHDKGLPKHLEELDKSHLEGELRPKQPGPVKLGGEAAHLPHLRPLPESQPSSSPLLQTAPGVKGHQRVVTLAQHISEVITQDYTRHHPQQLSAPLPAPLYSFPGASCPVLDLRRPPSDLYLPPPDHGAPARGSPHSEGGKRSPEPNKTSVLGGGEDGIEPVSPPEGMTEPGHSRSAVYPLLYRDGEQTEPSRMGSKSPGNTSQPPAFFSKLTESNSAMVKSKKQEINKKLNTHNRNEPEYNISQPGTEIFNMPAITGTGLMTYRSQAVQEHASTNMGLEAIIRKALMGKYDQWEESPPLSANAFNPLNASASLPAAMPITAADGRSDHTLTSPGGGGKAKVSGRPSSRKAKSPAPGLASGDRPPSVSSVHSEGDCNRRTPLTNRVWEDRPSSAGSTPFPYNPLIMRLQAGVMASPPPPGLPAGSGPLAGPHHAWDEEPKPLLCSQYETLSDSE
As for MSITSDEVNFLVYRYLQESGFSHSAFTFGIESHISQSNINGTLVPPAALISILQKGLQYNEAEISINEDGTVFDGRPIESLSLIDAVMPDVVQTRQQAFREKLAQQQASAAAAAAAATAAATAATTTSAGVSHQNPSKNREATVNGEENRAHSVNNHAKPMEIDGEVEIPSSKATVLRGHESEVFICAWNPVSDLLASGSGDSTARIWNLNENSNGGSTQLVLRHCIREGGHDVPSNKDVTSLDWNTNGTLLATGSYDGFARIWTEDGNLASTLGQHKGPIFALKWNRKGNYILSAGVDKTTIIWDAHTGEAKQQFPFHSAPALDVDWQNNTTFASCSTDMCIHVCRLGCDRPVKTFQGHTNEVNAIKWDPSGMLLASCSDDMTLKIWSMKQEVCIHDLQAHNKEIYTIKWSPTGPATSNPNSNIMLASASFDSTVRLWDIERGVCTHTLTKHQEPVYSVAFSPDGKYLASGSFDKCVHIWNTQSGNLVHSYRGTGGIFEVCWNARGDKVGASASDGSVCVLDLRK [V60N], the “effect of a mutation on the interaction” value is “disrupting interaction”.

As to MSITSDEVNFLVYRYLQESGFSHSAFTFGIESHISQSNINGTLVPPAALISILQKGQQYVEAEISINEDGTVFDGRPIESLSLIDAVMPDVVQTRQQAFREKLAQQQASAAAAAAAATAAATAATTTSAGVSHQNPSKNREATVNGEENRAHSVNNHAKPMEIDGEVEIPSSKATVLRGHESEVFICAWNPVSDLLASGSGDSTARIWNLNENSNGGSTQLVLRHCIREGGHDVPSNKDVTSLDWNTNGTLLATGSYDGFARIWTEDGNLASTLGQHKGPIFALKWNRKGNYILSAGVDKTTIIWDAHTGEAKQQFPFHSAPALDVDWQNNTTFASCSTDMCIHVCRLGCDRPVKTFQGHTNEVNAIKWDPSGMLLASCSDDMTLKIWSMKQEVCIHDLQAHNKEIYTIKWSPTGPATSNPNSNIMLASASFDSTVRLWDIERGVCTHTLTKHQEPVYSVAFSPDGKYLASGSFDKCVHIWNTQSGNLVHSYRGTGGIFEVCWNARGDKVGASASDGSVCVLDLRK [L57Q], the “effect of a mutation on the interaction” value is reported as “decreasing interaction strength”.

Consider MSITSDEVNFLVYRYLQESGFSHSAFTFGIESHISQSNINGTLVPPAALISILQKGAQYVEAEISINEDGTVFDGRPIESLSLIDAVMPDVVQTRQQAFREKLAQQQASAAAAAAAATAAATAATTTSAGVSHQNPSKNREATVNGEENRAHSVNNHAKPMEIDGEVEIPSSKATVLRGHESEVFICAWNPVSDLLASGSGDSTARIWNLNENSNGGSTQLVLRHCIREGGHDVPSNKDVTSLDWNTNGTLLATGSYDGFARIWTEDGNLASTLGQHKGPIFALKWNRKGNYILSAGVDKTTIIWDAHTGEAKQQFPFHSAPALDVDWQNNTTFASCSTDMCIHVCRLGCDRPVKTFQGHTNEVNAIKWDPSGMLLASCSDDMTLKIWSMKQEVCIHDLQAHNKEIYTIKWSPTGPATSNPNSNIMLASASFDSTVRLWDIERGVCTHTLTKHQEPVYSVAFSPDGKYLASGSFDKCVHIWNTQSGNLVHSYRGTGGIFEVCWNARGDKVGASASDGSVCVLDLRK [L57A], for which the “effect of a mutation on the interaction” value is reported as “decreasing interaction strength”.

Take MSITSDEVNFLVYRYLQESGFSHSAFTFGIESHISQSNINGTLVGPAALISILQKGLQYVEAEISINEDGTVFDGRPIESLSLIDAVMPDVVQTRQQAFREKLAQQQASAAAAAAAATAAATAATTTSAGVSHQNPSKNREATVNGEENRAHSVNNHAKPMEIDGEVEIPSSKATVLRGHESEVFICAWNPVSDLLASGSGDSTARIWNLNENSNGGSTQLVLRHCIREGGHDVPSNKDVTSLDWNTNGTLLATGSYDGFARIWTEDGNLASTLGQHKGPIFALKWNRKGNYILSAGVDKTTIIWDAHTGEAKQQFPFHSAPALDVDWQNNTTFASCSTDMCIHVCRLGCDRPVKTFQGHTNEVNAIKWDPSGMLLASCSDDMTLKIWSMKQEVCIHDLQAHNKEIYTIKWSPTGPATSNPNSNIMLASASFDSTVRLWDIERGVCTHTLTKHQEPVYSVAFSPDGKYLASGSFDKCVHIWNTQSGNLVHSYRGTGGIFEVCWNARGDKVGASASDGSVCVLDLRK [P45G]: the “effect of a mutation on the interaction” value is listed as “decreasing interaction”.

Regarding MSITSDEVNFLVYRYLQESGFSHSAFTFGIESHISQSNANGTLVPPAALISILQKGLQYVEAEISINEDGTVFDGRPIESLSLIDAVMPDVVQTRQQAFREKLAQQQASAAAAAAAATAAATAATTTSAGVSHQNPSKNREATVNGEENRAHSVNNHAKPMEIDGEVEIPSSKATVLRGHESEVFICAWNPVSDLLASGSGDSTARIWNLNENSNGGSTQLVLRHCIREGGHDVPSNKDVTSLDWNTNGTLLATGSYDGFARIWTEDGNLASTLGQHKGPIFALKWNRKGNYILSAGVDKTTIIWDAHTGEAKQQFPFHSAPALDVDWQNNTTFASCSTDMCIHVCRLGCDRPVKTFQGHTNEVNAIKWDPSGMLLASCSDDMTLKIWSMKQEVCIHDLQAHNKEIYTIKWSPTGPATSNPNSNIMLASASFDSTVRLWDIERGVCTHTLTKHQEPVYSVAFSPDGKYLASGSFDKCVHIWNTQSGNLVHSYRGTGGIFEVCWNARGDKVGASASDGSVCVLDLRK [I39A], the “effect of a mutation on the interaction” value is “decreasing interaction”.

The variants in the next assay derive from B1. The note with it: with gps2_human GPS2, Q13227.
On to MSITSDEVNFLVYRYLQESGFSHSAFTFGIESHISQSNINGTLVPPAALISILQKGLQYNEAEISINEDGTVFDGRPIESLSLIDAVMPDVVQTRQQAFREKLAQQQASAAAAAAAATAAATAATTTSAGVSHQNPSKNREATVNGEENRAHSVNNHAKPMEIDGEVEIPSSKATVLRGHESEVFICAWNPVSDLLASGSGDSTARIWNLNENSNGGSTQLVLRHCIREGGHDVPSNKDVTSLDWNTNGTLLATGSYDGFARIWTEDGNLASTLGQHKGPIFALKWNRKGNYILSAGVDKTTIIWDAHTGEAKQQFPFHSAPALDVDWQNNTTFASCSTDMCIHVCRLGCDRPVKTFQGHTNEVNAIKWDPSGMLLASCSDDMTLKIWSMKQEVCIHDLQAHNKEIYTIKWSPTGPATSNPNSNIMLASASFDSTVRLWDIERGVCTHTLTKHQEPVYSVAFSPDGKYLASGSFDKCVHIWNTQSGNLVHSYRGTGGIFEVCWNARGDKVGASASDGSVCVLDLRK [V60N], for which the “effect of a mutation on the interaction” value is “disrupting interaction”.

In the case of MSITSDEVNFLVYRYLQESGFSHSAFTFGIESHISQSNINGTLVPPAALISILQKGQQYVEAEISINEDGTVFDGRPIESLSLIDAVMPDVVQTRQQAFREKLAQQQASAAAAAAAATAAATAATTTSAGVSHQNPSKNREATVNGEENRAHSVNNHAKPMEIDGEVEIPSSKATVLRGHESEVFICAWNPVSDLLASGSGDSTARIWNLNENSNGGSTQLVLRHCIREGGHDVPSNKDVTSLDWNTNGTLLATGSYDGFARIWTEDGNLASTLGQHKGPIFALKWNRKGNYILSAGVDKTTIIWDAHTGEAKQQFPFHSAPALDVDWQNNTTFASCSTDMCIHVCRLGCDRPVKTFQGHTNEVNAIKWDPSGMLLASCSDDMTLKIWSMKQEVCIHDLQAHNKEIYTIKWSPTGPATSNPNSNIMLASASFDSTVRLWDIERGVCTHTLTKHQEPVYSVAFSPDGKYLASGSFDKCVHIWNTQSGNLVHSYRGTGGIFEVCWNARGDKVGASASDGSVCVLDLRK [L57Q], the “effect of a mutation on the interaction” value is on record as “decreasing interaction strength”.

Consider MSITSDEVNFLVYRYLQESGFSHSAFTFGIESHISQSNINGTLVPPAALISILQKGAQYVEAEISINEDGTVFDGRPIESLSLIDAVMPDVVQTRQQAFREKLAQQQASAAAAAAAATAAATAATTTSAGVSHQNPSKNREATVNGEENRAHSVNNHAKPMEIDGEVEIPSSKATVLRGHESEVFICAWNPVSDLLASGSGDSTARIWNLNENSNGGSTQLVLRHCIREGGHDVPSNKDVTSLDWNTNGTLLATGSYDGFARIWTEDGNLASTLGQHKGPIFALKWNRKGNYILSAGVDKTTIIWDAHTGEAKQQFPFHSAPALDVDWQNNTTFASCSTDMCIHVCRLGCDRPVKTFQGHTNEVNAIKWDPSGMLLASCSDDMTLKIWSMKQEVCIHDLQAHNKEIYTIKWSPTGPATSNPNSNIMLASASFDSTVRLWDIERGVCTHTLTKHQEPVYSVAFSPDGKYLASGSFDKCVHIWNTQSGNLVHSYRGTGGIFEVCWNARGDKVGASASDGSVCVLDLRK [L57A], for which the “effect of a mutation on the interaction” value is reported as “decreasing interaction strength”.

In a further assay the parent is B2. Particulars: with TBL1X.
As to MPALLERPKLSNAMARALAEHAMMERERKRQEEEEVDKMMEQKMKEEQERRKKKEMEERMSLEETKEQILKLEEKLLALQEEKHQLFLQLKKVLHEEEKRRRKEQSDLTTLTSAAYQQSLTVHTGTHLLSMQGSPGGHNRPGTLMAADRAKQMFGPQVLTTRHYVGSAAAFAGTPEHGQFQGSPGGAYGTAQPPPHYGPTQPAYSPSQQLRAPSAFPAVQYLSQPQPQPYAVHGHFQPTQTGFLQPGGALSLQKQMEHANQQTGFSDSSSLRPMHPQALHPAPGLLASPQLPVQMQPAGKSGFAATSQPGPRLPFIQHSQNPRFYHK [H19A;R20E;I22A], the “effect of a mutation on the interaction” value was “disrupting interaction”.
